Assay results: US5989804, “E6 binding proteins” (New England Medical Center Hospitals, Inc., dated 1999)

Target: in vitro-translated 35S-labeled HPV16 E6 (human papillomavirus type 16, UniProt P03126, 35S-labeled cysteine or methionine)
Assay: GST pull-down of 35S-labeled in vitro-translated HPV-16 E6

Binder: ILVEKDRFVNDYDKDNDGRLDPQELLPWVVPNNQGI (other) [GSTSD7EF5]
- binding result: no binding
